Data from article PMC3229523, “Identification of Lactoferricin B Intracellular Targets Using an Escherichia coli Proteome Chip” (PLoS ONE, 2011).
Ends that are not written are not given here. * marks the point of attachment. Biotin = O=C1N[C@H]2[C@H](CS[C@H]2CCCCC(=O)*)N1

Key:
Assay in all cases: peptide or protein array; E. coli proteome chip: purified His-tagged proteins printed in duplicate on Fullmoon slides, blocked with 1% BSA; 10 nM N-terminal biotinylated LfcinB with 1% BSA, room temperature, 1 h; detected with DyLight 649-labeled streptavidin, ratio to DyLight 549-labeled anti-His antibody; ProCAT normalisation, local cut-off; triplicate chips
Conditions in all cases: both partners purified
[1] = target: T1, YbeY (E. coli K-12, UniProt P0A898 1-155)
T1 construct: YbeY, E. coli K-12

[2] = target: T2, YbeQ (E. coli K-12, UniProt P77234 1-325)
T2 construct: YbeQ, E. coli K-12
T2 sequence (looked up): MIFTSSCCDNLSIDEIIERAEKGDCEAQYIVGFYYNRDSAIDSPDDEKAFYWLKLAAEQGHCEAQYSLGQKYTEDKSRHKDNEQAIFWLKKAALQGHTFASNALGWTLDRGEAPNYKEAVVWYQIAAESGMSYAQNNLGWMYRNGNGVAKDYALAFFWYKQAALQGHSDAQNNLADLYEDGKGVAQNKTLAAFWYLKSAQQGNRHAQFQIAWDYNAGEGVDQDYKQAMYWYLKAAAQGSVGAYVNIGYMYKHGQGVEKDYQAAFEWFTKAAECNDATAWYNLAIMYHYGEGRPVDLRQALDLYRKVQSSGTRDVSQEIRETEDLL

[3] = target: T3, YjbM (E. coli K-12, UniProt P32694 1-235)
T3 construct: YjbM, E. coli K-12
T3 sequence (looked up): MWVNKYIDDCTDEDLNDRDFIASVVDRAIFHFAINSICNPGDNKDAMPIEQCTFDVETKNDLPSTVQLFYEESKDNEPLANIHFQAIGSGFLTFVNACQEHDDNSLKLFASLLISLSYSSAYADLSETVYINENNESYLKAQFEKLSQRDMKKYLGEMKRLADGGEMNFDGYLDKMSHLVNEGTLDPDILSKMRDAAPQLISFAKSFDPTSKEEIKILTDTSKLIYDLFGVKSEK

[4] = target: T4, XerB (E. coli K-12, UniProt P68767 1-503)
T4 construct: XerB, E. coli K-12
T4 sequence (looked up): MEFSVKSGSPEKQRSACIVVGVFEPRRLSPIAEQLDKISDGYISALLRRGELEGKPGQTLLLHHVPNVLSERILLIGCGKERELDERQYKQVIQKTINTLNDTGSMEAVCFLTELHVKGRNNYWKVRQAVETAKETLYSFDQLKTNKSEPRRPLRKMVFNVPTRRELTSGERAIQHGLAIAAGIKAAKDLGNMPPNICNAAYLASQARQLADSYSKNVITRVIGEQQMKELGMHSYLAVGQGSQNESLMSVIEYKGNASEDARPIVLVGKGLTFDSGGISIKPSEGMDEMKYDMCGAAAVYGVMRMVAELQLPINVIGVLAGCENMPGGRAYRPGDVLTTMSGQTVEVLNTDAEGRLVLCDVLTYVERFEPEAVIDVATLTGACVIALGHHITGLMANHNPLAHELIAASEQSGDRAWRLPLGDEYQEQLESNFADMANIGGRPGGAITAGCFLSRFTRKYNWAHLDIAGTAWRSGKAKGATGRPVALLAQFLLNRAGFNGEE

[5] = target: T5, BasR (E. coli K-12, UniProt P30843 1-222)
T5 construct: BasR, E. coli K-12
T5 sequence (looked up): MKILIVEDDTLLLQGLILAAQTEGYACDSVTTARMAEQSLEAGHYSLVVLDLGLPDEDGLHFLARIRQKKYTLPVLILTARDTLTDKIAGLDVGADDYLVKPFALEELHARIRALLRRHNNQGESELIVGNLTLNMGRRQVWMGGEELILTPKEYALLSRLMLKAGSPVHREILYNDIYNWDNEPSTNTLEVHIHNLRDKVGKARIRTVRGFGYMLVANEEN

[6] = target: T6, YjgL (E. coli K-12, UniProt P39336 1-604)
T6 construct: YjgL, E. coli K-12
T6 sequence (looked up): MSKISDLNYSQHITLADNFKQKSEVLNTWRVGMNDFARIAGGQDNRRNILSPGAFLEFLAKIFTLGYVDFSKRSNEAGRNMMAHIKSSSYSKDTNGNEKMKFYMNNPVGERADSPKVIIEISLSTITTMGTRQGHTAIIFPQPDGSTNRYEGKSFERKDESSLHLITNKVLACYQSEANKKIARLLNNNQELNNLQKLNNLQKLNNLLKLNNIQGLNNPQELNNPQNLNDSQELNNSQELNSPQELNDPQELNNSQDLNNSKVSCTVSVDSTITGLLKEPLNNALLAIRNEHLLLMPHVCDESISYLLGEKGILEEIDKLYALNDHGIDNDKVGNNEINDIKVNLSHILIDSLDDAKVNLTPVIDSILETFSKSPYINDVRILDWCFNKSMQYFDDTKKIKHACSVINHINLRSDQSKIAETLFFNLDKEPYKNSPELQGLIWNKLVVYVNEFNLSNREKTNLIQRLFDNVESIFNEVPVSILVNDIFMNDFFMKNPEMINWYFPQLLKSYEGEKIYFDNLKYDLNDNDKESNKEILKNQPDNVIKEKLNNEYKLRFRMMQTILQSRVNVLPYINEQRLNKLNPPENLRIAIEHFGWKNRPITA

Measured: binding result

T1 sequence (P0A898 whole entry): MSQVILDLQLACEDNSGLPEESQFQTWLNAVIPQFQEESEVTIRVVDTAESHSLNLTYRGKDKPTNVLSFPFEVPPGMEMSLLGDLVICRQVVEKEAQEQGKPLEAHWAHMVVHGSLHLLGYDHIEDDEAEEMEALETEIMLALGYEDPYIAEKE

B1: N-terminal biotinylated Lactoferricin B (peptide, UniProt P24627 36-60, looked up)
peptide: Biotin-FKCRRWQWRMKKLGAPSITCVRRAF
modifications: ends and bridges not checked
notes: lactoferricin B (LfcinB), cationic antimicrobial peptide of 25 amino acids; also called biotinylated LfcinB; biotin-labeled LfcinB; source: bought: Kelowna Inc
binds: [1] | [2] | [3] | [4] | [5] | [6]
